The values below come from the NTF2 design screens of Basanta et al. (2020).

The nature of this data set: protease stability score; higher = more stable; yeast display proteolysis, trypsin and chymotrypsin.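 Further: log10 excess protease needed over predicted unfolded state with 0 meaning unfolded.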
With “DSNALSRAMEYLRVVEQGDPKRAKQLFDPNARFIYGDRTVHGKDRIADMLRHERDDMRLQIDDLKTTVQGDKVVVRYKAVRERNGHPETFRAEFRVEFNNGKIEQQNYQVHK”, the protease stability score came out at 0.25.
Under “DSQERADDWMRDFNRAVQHGDPTQLTDLMDKDANARIGDTSVHGRHHLVTRWQQFRTDVDRVDIHIVSIEVQGDKIHIDMTFQADVNGRRKEDHIVIIAVDRNGKVKVQQIQDK” stands -0.337; under “DSQKERDLVEHFLRNFRTGDPDKLKTMADPNAHMRVGDKNVHGREDLSRWVQEVRDRADHIDIDTFSVSNGRATATIVMRVDGKEVRFEVVITMENGKIKSMEQQDR”, 0.726.
For “DSRAANLFSHAWKQVETGNNHNFRKLLDPNARRKVGDQTIDGREEMTEDNKRKRKEMHRTIETMSFEDHGDKAVFYMQYVVHHNGEPREIRNRVIIKVRGDRIKEVEVRKDG”, the protease stability score was 0.006.
Sequence “DSRAQSLFHKWMDALRTGDRRKLSELADPNVSITYGDKTIHGREENMKEAHRLVNQMRVDFDIKSIENEPNRVIIRMRVEYDVNGRPFDDEVVVELRAKGDHIKEVRVRIDPRQVKELSG” showed a protease stability score of 0.907.
For “DSRAVHLAKNFMSALKTGDHDRARDNLDKDARISIGDKVWHGMDEAVHDIKREKEEMRIEFRKVDAKDSNGKVRMDADVVFNHDGRPDKFRLDADIEVHNGRIHVLDVENSK”, the protease stability score came to 0.264.
The same measure for “DSRDNRAATRLRQAHESGDPDQIRDNVDPNATIQVGDKSIHGMESWAREEHKKHRELKVEIKDFRQSASNGHVKATIDRVDNHNGRPQRTTVDIHIVFHNGKVKSIDVKTTK”: -0.481.
As for “DSREAKRAETFFRLVQRGDSRKLQEYMDPNARINIGEKRIHGRENYAKEVKDRREHIRVDIKSLEASDTNGRIHVEVHFEHSHNGRPDQQTMELRITMHNGRAQEITQHETK”, the protease stability score is -0.223.
Sequence “DSREEAKRFFTKMVEIFKTGDEDEAHEMADKNARVHVGDKTVRGREQYTRKMSKEVKQVDHAEYRIQDVEVQGEHIRITFVRRIDTNGRTNEQHLVMEAEKHNGRIYIKQIHES” gave a protease stability score of -0.159.
Regarding “DSRELDEFIHKFAQVIRKGNPRDAMKNVDKDARAVVGNKHINGRDQFHKWIEDLNKTIDHFEIVHVEVEGDRALMDVQVNINGKTRRIRLTAHVHNGRFKDVRVDPENERKLNQ”, the protease stability score stood at 0.011.
Regarding “DSREQEDFRRKVETNNPDQEKKMFDENARLQVGDKTYHGREKVFDFLKTLMDQVDHVHVRDMHVKGDEYSFDIILDINGRRIHITFLARVHNGHIKSQSLRATDESVKDEIEELQG”, the protease stability score worked out at 0.404.
Under “DSRSNAQRVLDAINQLVHGNPQEFNKNADPNVRATYGDKEVHGREEVKKHVDSLMKKVDHVQVKNYQITGDKARVQVVLDINGRTRHVQINAHAKNGRIKHVEIQQQ” stands 0.895; under “DSTNVEILKEYVENQRRGNEDQLRRLMDPNVHVQVGDKQLHGDRQITDEFRRQQEHLRFSIKTYDYRDQGDKVRAHIVYEQMHNGRPETVRHNMVAEIHNGNIKYLQIESDQ”, -0.301; under “DSTQVRILEEMNRAIERGDPERVYQLADPNARFQIGDTQIHGMESFMKHVEETVRHMRISIRSLHADDEGDKMKVTFTFVVNRDGQPRRRVVTATAHANGDQVKYLEWRDDE”, 0.477.
Regarding “DTDAVKNFKEDLHAVRSGDPDRLLKMFDPNAKLQIGDKEVTGMDQYAKEVHNTRQEIRMSYELRDYKVDGDKIEADIRVQKDVNGRPYRDKVKVDIKVNNGRIKKARYQVDEDKEKQLQS”, the protease stability score is -0.126.
Sequence “DTDAVRRALKFIDAMQDGDPDKARELMDPNARVNIGDKEYHGMTSFVKDLKRLRDEIRVQYNIRDYNAQGEKIHVTVDVVFEHNGRPVDERFNVTIDIQGDKIKQVTAHRTK” came in with a protease stability score of 1.61.
Take “DTDDNRKAAENILTAIQSNDPDERQKNADENVKVNVGDNRISGRENMHEFMKRVWEDVDKITIRSYTFKGDKMTADIHLNFNGQTAKLNVDVNIHNGKAQEVSMDPKADRVVRT”: the protease stability score amounted to 0.47.
Under “DTDDTEALRRFFDALHNGDPDKVDKNADKDVRFKVGDKEIHGREQLRRTVEQQKKEIRYEVDVKQISDHNGQVSVHAHFQENKNGKPKNVEVTAVAEAENGTLKQLEFNSDQ” stands -0.367; under “DTDKTARQLVRDLEKALQTGDPDKLAKLFDKDARINVGEKDYQGRERMQRNWRRDNTRIDHVSVDLKDMKIQGNKISVDMTIKFKVDGHHNSRVVVLLFDNDNGTVRAVENQQK”, 0.16.
Take “DTEARKLIEELLRAVRDGDPDQVKQNADPNARVQYGDQTFHGMDRYAEWVEEMHKQARVSIEFDSFSFTGDKVQMHAKHVVEVNGKPQRDTVVIRAVVRGDKIRNIHFRMDEQRVRDQQS”: the protease stability score was 0.783.
“DTEDDHEFARKYVEVLESGDPKQWREMFDEDAKMRIGEKTFRGRDQIATWYERYRRQADHVEVKHVETRGEQFQFDFQVHVNGKHARYTLNIRVHNGKLVEVKFDPDQKKTMDK” gave a protease stability score of 1.75.
The sequence “DTEDLNRLANTMASAIHHNDPDKIVKMFDPNARARVGDKSYHGREDLRKMVNEWHRQADDIHIQQVQVHNGRAYINFVRNVNGVHADLTAIITIENGRAEKMTLTYRNPDDEKKVQG” had a protease stability score of 0.279.
“DTEDNHKLREVIRTNNPQEIREMMDPNVKVRYGNKEIEGRDQAVKHEQDLQHRADRVKIEDMRVHGDKLVVVWSINIDGSEFRFSFEARIHNGKVKFAQIQFTDPDLERKFDDMLQ” registered a protease stability score of 0.324.
Take “DTEELQRLLTLVETNDFETLAKQADENARADVGDHKITGREDITRWAKQLSDRIDHVEVRSLDIQGDKAVAVLQFHVNGRTMVFRVHISAHNGKVKHFQVKVRDENARKQLKRVVD”: the protease stability score amounted to 0.147.
Under “DTEERAEDFMHIMQNAATHGDPNIQRHLADKHVRVEVGDKTVSGREEHKTEFDKRVKQYDSISVNMRKMEIDGDKARFNVEERYNTNGRNQHHDVKQQAIVQGDKVHLDRVDNK” stands -0.603; under “DTEEREKVMEIMRTGDPDKLHKLMDKNVKVVVGDKRYHGREMVEELVQKLKSQIDHIEVKDYTIQGDNLILNAVINVDGRSVELVIFVRVHNGRIKHMNFNVTDEEEQKKLDENLS”, 1.34; under “DTEKLDRFAHEFVKVLREGDEDRMRKLADEDASMNIGDKEYRGREEVAKALREYRERYDHLQVDSIDVQGEHISVKAQVRIDGRRRRARFEVRMHNGRIKEVNFDPDLLKEQHT”, 0.206.
As to “DTEKTTELKKMFDHEQEGNENHLMRMFDPNATVQVGDKRIHGREDLQRWLDRFRKNQRVNVRSITVDVQGERFRVEVEADAKHNGRPNQMHRSMEVEFHNGRIKRADFQTDG”, the protease stability score worked out at 0.124.
Sequence “DTELKDQIKRFLSERNSGNPQKMVEQMDPNANMSVGDKSVRGREQVSEQAEREKRELHYRVRSVDISVNGDKVKVKINVEREHNGRPFTMTLDLTIRAHNGRLTRVEVSLSEDDKREIKR” had a protease stability score of 0.521.
Turning to “DTELTHELSHRIKDNNWEDLSKNADENVEFRVGNKEYHGKEEFQHLQENLKRQIDDVKIHSLTAQGDHLEADVVYNVNGRDLRFTFHMTVRNGKIKEMNASFRDESQVNTMLTVLN”, the protease stability score is -0.238.
The same measure for “DTENEKLQRRFMKALKTNDPHRAREMADENAKVQVGDKRIHGMQTVVEDLEREWREQRNDVKVRSVSNEGNKVNMDATMKVEHNGKPKHFNVVYRATVHNGRIHELRVERDG”: 0.088.
The same measure for “DTENVKKATDYVHALNTGDEHRVKELMDPNARIRYGDKEVKGHDEIAKTLKTERDQSRVEFDIKRVEHQGNKVSIDLNFRKNQNGQPRSTKVNITVVFHNGKIKEINIQTDG”: 1.59.
On to “DTEQLKVFKEFVDAHRHNNPEELKKQMDKDVHFRVGNKQIHGREKAAHYWETIMHEIRVEWKSIVMKDSNGKAKAKFRFVENVNGKPQENTYDLEFSARNGRINSITMRFDEDQQRHHKK”, for which the protease stability score amounted to 0.345.
In turn, “DTERNAKEAVTRLKKVFTHNDPDKIASMFDENAHIEVGDKRYHGHEEVKRWADDMRNQYDHWDADVRSIDVHGDKVHVEAVITAERNGKTLERTFVVIFDRDNGQLRIHELRDQ” showed a protease stability score of 0.926.
In turn, “DTESAQTFVDVLEEGDFDTLVNLMDKNARLQVGDTTFNGRENARHFFELMKDKVDHLKIDHYEIHGNHVNIDMKLNVNGKTVDVVVYVKFHNGRIQHLRIEARDPEDMRTFKENMR” came in with a protease stability score of 1.35.
Under “DTESLKKVEDVVNNNDKKKHERLLDKDVRIVVGDKEVRGREQAARDYKRFVNHADHIEIKRVRSNGDKLFIDRVVNFNGQTVHFVVTYVVKNGSIQEVSVKVTDKEHLKLYKEALR” stands 0.196.
On to “DTEVIHVLKRIMHAINEGDESQVRKNADPNVKVRVGNKSIHGREQLVEQMRRDVEEIRLEYKSFDAKDSDGHARARVKYQNEFNGKPQEKDDRATAVAHNGHLKSIRWRVPEDDLRDQDT”, for which the protease stability score was -0.014.
The sequence “DTEVQQRVEHYLRLREYNSPEHLIEMVDPNAKIEIGNKEFHGMENYAHTMRKRVEEWRLEIKHISVTIRNGRVVARIDQEVDIDGNPVRYTYKVVYDAHNGNIKHIKNDVDPRQQQQQHK” yielded a protease stability score of 0.176.
Sequence “DTHAVEVWRRVLRAKETGDEKTLEKNFDPNARFQVGDKTLHGMEQQVTENKRERDDLRVHVEIKEVKDQGDKAFVDMVMTAEVNGQPYRIRVEVVAVVRNGKIKELVINMDPRQQEQLDS” displayed a protease stability score of 0.28.
In the case of “DTHDEKHVAQNVVDALRRNDPDQLRRMMDPNVHFEVGDKTIHGREDAARQLKEIKKNVDHFQVDDVTMSNGRVHAIIRVEINGQERRNVVQADVKNGHVKFQRIKDQ”, the protease stability score was -0.084.
As for “DTHDVKRILDELKTNDEDMNRHLVDPNAKLRIGDKEIHGREELTEFYHRFHKQVDSQRIKDVRVHGNRFRVEFEAVFNGQTVEASYEATFHNGKATSLRYTATSNEELKNLQKVMD”, the protease stability score was 0.147.
In turn, “DTHKLREHARSMVEAMEDGDPQHLAKLMDENAKVTVGDKDVHGEEQAKRWAREWQKRFDHVEVDDLKVDNGRIRVKFHAQVNGREIFVIVKVEVRNGRIRSLSLEVRDEHVEKRLQD” yielded a protease stability score of 0.909.
In the case of “DTHNFKKYMELLKALETGDERTARKMADPNAEFVIGDKEWHGMEEFAQTRVEQFKEQSIEIKILDYKDKNGQVHIRYRIRVNRNGKPDEKEVVVRIENHNGRIHHVEYRDTG”, the protease stability score was 0.09.
“DTKERQNRAEEINKNFKEGNPHEYMSMLDKNASAQVGDKQVHGRERMSKRIEDIVRRADKLTIETFHVSGDKVEIVVQLIVNGTRVRMEVEIKFENGHAKHVEFNPEQDKQLKQ” returned a protease stability score of 0.421.
For “DTQALKHARSVLEDNDWDKLQKLADKDARATVGDTTYHGREDIQTWLKRAEETVDHVNIKSISIDEDSISVRFVMNVNGKTVEMVITIQLHNGRIKFLRIQARSEEQEKTIHEVVD”, the protease stability score was -0.051.
For “DTQEKLKHWWKHVQENIKTGDEDRLHEMVDPNASVQVGDKELHGREKIATTYVELMSRVDHVRIQITELEVHGNDFDLTFNYEADVNGRKEHDHYRVVLQEHNGQLRLVQMSEG”, the protease stability score came to 0.747.
The same measure for “DTQKIVDDIAHEVVEVLKTGDPRKVVKLVDENARLQVGDKIVRGREDVKKRAEKENSRVDHREARVQEVTMHNGDVTIRFRVKDTHNGRSDSREYTIHLQEHDGKVFIQNMEDR”: -0.261.
